Earlier results as cited in patent US5550213A, “Inhibitors of urokinase plasminogen activator” (Rutgers, The State University of New Jersey, priority 1993, dated 1996).

Target: urokinase (UK) (Homo sapiens, UniProt P00749)
Settings: from Turpeinen et al. (PSTI), Christensen et al. (PAI-2); serpin Ki not functionally comparable to reversible inhibitors; read-out: Ki (nM) against UK, values obtained from the literature

B1: PAI-2: placental type PA-inhibitor, a serpin, native inhibitor of urokinase (protein, UniProt P05120 1-415, looked up)
Plasminogen activator …: MEDLCVANTLFALNLFKHLAKASPTQNLFLSPWSISSTMAMVYMGSRGSTEDQMAKVLQFNEVGANAVTPMTPENFTSCGFMQQIQKGSYPDAILQAQAADKIHSSFRSLSSAINASTGNYLLESVNKLFGEKSASFREEYIRLCQKYYSSEPQAVDFLECAEEARKKINSWVKTQTKGKIPNLLPEGSVDGDTRMVLVNAVYFKGKWKTPFEKKLNGLYPFRVNSAQRTPVQMMYLREKLNIGYIEDLKAQILELPYAGDVSMFLLLPDEIADVSTGLELLESEITYDKLNKWTSKDKMAEDEVEVYIPQFKLEEHYELRSILRSMGMEDAFNKGRANFSGMSERNDLFLSEVFHQAMVDVNEEGTEAAAGTGGVMTGRTGHGGPQFVADHPFLFLIMHKITNCILFFGRFSSP
Ki: < 0.01 nM
